Data set [1] deals with DSA polymerase K276C,Q451C (Bacillus stearothermophilus) (UniProt Q04957). Kind of data set: BLI. The note with it: first round 1.75 vs 0.9; second round after incorporation 1.60; 300 nM, 100 mM KCl, 320 mM K-glutamate, 2 mM SrCl2; lower binary and ternary signal than CBT in …; scale: ratio correct to highest incorrect signal.
The target in data set [2] is TEE polymerase K276C,Q307E,Q451C (Bacillus stearothermophilus) (UniProt Q04957). Put plainly: BLI. The note with it: first round 1.10 vs 0.4; second round after incorporation 4.83; very low binary signal; 900 nM, 100 mM KCl, 320 mM K-glutamate, 2 mM SrCl2; scale: ratio correct to highest incorrect signal.

For the substance “primed template, next correct nucleotides AT (Examples 3 and 5)”, the binding signal turned out to be 1.95 in data set [1] and 2.75 in data set [2].

The record behind these values is US20180155698.
